Measured values reported in US20150337292A1.

Experiments:
[1] = target: hsEGFR (human (printed only as 'hs')) (UniProt P00533); assay: two-colour flow cytometry after 24 hours, b-hsEGFR/SA-PE and Fc-specific AlexaFluor 647
[2] = target: hsEGFR (human (printed only as 'hs')) (UniProt P00533); assay: two-colour flow cytometry after 48 hours, b-hsEGFR/SA-PE and Fc-specific AlexaFluor 647

antibody matuzumab (IgG molecule) secreted by yeast and displayed through the ZZ domain
percent of cells within the marker region M1 [1]: 36.4% | percent of cells within the marker region M1 [2]: 43.4%
